For test [1], the target named is T1, mouse CLDN18.2 (mCLDN18.2) (mouse, UniProt P56857 10-264).
T1 construct: Stably expressed on HEK293 cells; the stomach-type isoform is meant; also called mouse mhCLDN18.2; m hCLDN18.2
T1 chain: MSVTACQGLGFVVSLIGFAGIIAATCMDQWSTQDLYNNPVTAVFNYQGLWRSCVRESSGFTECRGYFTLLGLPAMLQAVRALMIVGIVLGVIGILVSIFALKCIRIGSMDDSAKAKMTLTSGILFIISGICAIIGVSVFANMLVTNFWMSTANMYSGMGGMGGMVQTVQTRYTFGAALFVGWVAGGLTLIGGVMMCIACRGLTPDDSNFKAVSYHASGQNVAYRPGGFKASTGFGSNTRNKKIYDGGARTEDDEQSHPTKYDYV
Briefly: flow cytometry on HEK293-mCLDN18.2 cells, paraformaldehyde-fixed and non-fixed. (In general: A flow cytometer gives signals particle by particle.)

The target of test [2] is T2, human CLDN18 splice variant 2 (Claudin 18.2, hCLDN18.2) (human).
T2 construct: The same entry is used for CLDN18.2 in human stomach and gastric cancer FFPE tissue (IHC); also called HEK293-hCLDN18.2; HEK293-CLDN18.2
Put plainly: flow cytometry on HEK293-hCLDN18.2 cells, paraformaldehyde-fixed and non-fixed.

Test [3] deals with T3, mouse CLDN18.1 (mCLDN18.1) (mouse, UniProt P56857 1-264).
T3 construct: Stably expressed on HEK293 cells; the lung-type isoform is meant; also called HEK293-mCLDN18.1
Put plainly: flow cytometry on HEK293-mCLDN18.1 cells, paraformaldehyde-fixed and non-fixed.

Test [4] has as its target T2, human CLDN18 splice variant 2 (Claudin …). Briefly: flow cytometry on HEK293-hCLDN18.2 cells, 3-fold dilutions from 10 µg/mL, 8 points.
Test [5] has the same target. Briefly: IHC with hybridoma supernatant on FFPE sections of HEK293-hCLDN18.2 cell blocks.

The results in this text go back to patent US20230312704A1 (SHANGHAI ESCUGEN BIOTECHNOLOGY, published 2023).

B1: human-mouse chimeric positive control antibody 163E12 (antibody, human IgG1, kappa, V domains shown)
VH: QIQLVQSGPELKKPGETVKISCKASGYTFTNYGMNWVKQAPGKGLKWMGWINTNTGEPTYAEEFKGRFAFSLETSASTAYLQINNLKNEDTATYFCARLGFGNAMDYWGQGTSVTVSS
VL: DIVMTQSPSSLTVTAGEKVTMSCKSSQSLLNSGNQKNYLTWYQQKPGQPPKLLIYWASTRESGVPDRFTGSGSGTDFTLTISSVQAEDLAVYYCQNDYSYPLTFGAGTKLELKR
notes: Human-mouse chimeric antibody expressed in CHOS cells and purified on Protein A. It was detected with an anti-human Fc secondary antibody; also called home-made positive control (Benchmarker) chimeric antibody 163E12
B1: the binding result in test [1] is reported as “binds”; in test [2] it was “binds”; in test [3], “no binding”.

B2: purified recombinant mouse monoclonal antibody 5-G17 (mouse IgG2a, kappa) (antibody, V domains shown)
VH: EVKLVESGGGLVKPGGSLKLSCAASGFTISDYGMAWVRQAPGKGPEWVAFISNLAYSIHYVDTVTGRFTISRENAKNTLYLEMRSLRSEDTAMYYCARMYYGNALDYWGQGTSVTVSS
VL: DIVMTQSPSSLTVTTGEKVTMSCKSSQNLLNSGNQKNYLTWYQQKPGQPPKLLIYWASTRESGVPDRFTGSGSGTDFTLTISSVQAEDLAVYYCQNDYSFPLTFGAGTKLELKR
notes: Expressed in HEK293 cells and purified on Protein A; also called recombinant and purified mouse IgG2a type 5-G17
Consider B2, for which the binding result in test [4] is listed as “binds”.

B3: purified recombinant mouse monoclonal antibody 5-I10 (mouse IgG2a, kappa) (antibody, V domains shown)
VH: EIQLQQSGAELVKPGASVKISCKAPGYSFTDYNMNWVKQSHGKSLEWIGNINSYYGSTSYNQKFKGKATLTVDRSSSTAYMQLNSLTSEDSAVYYCTNFDRGNSFPYWGHGTLVTVSA
VL: DIVMTQSPSSLTVTVGEKVTMTCKSSQSLLNSGNQKNYLTWYQQKPGQSPKLLIYWASTRESGVPERFTGRGSGTDFTLTISSVQAEDLAVYYCQNGYSYPFTFGSGTNLEIKR
notes: also called recombinant and purified mouse IgG2a type 5-I10
On to B3, for which the binding result in test [4] is “binds”.

B4: 5-G17 (mouse hybridoma clone, supernatant) (antibody, V domains shown)
VH: EVKLVESGGGLVKPGGSLKLSCAASGFTISDYGMAWVRQAPGKGPEWVAFISNLAYSIHYVDTVTGRFTISRENAKNTLYLEMRSLRSEDTAMYYCARMYYGNALDYWGQGTSVTVSS
VL: DIVMTQSPSSLTVTTGEKVTMSCKSSQNLLNSGNQKNYLTWYQQKPGQPPKLLIYWASTRESGVPDRFTGSGSGTDFTLTISSVQAEDLAVYYCQNDYSFPLTFGAGTKLELK
notes: Antibody as secreted by the hybridoma; also called subclones 5-G17-30 and 5-G17-6
As to B4, in test [5], the binding result is given as “binds”.

B5: 5-I10 (mouse hybridoma clone, supernatant) (antibody, V domains shown)
VH: EIQLQQSGAELVKPGASVKISCKAPGYSFTDYNMNWVKQSHGKSLEWIGNINSYYGSTSYNQKFKGKATLTVDRSSSTAYMQLNSLTSEDSAVYYCTNFDRGNSFPYWGHGTLVTVSA
VL: DIVMTQSPSSLTVTVGEKVTMTCKSSQSLLNSGNQKNYLTWYQQKPGQSPKLLIYWASTRESGVPERFTGRGSGTDFTLTISSVQAEDLAVYYCQNGYSYPFTFGSGTNLEIK
notes: Antibody as secreted by the hybridoma; also called subclones 5-I10-33 and 5-I10-18
As for B5, the binding result in test [5] was “binds”.
